Data reported in US10800813 (Bicycle, dated 2020).
Numbered stars: 1 amine (or outer) side, 2 acyl side, 3 side chain; on linkers, the order of the positions; unused ones are H or OH. Bridge positions count the residues as written; N and C are the ends. Square brackets hold non-standard residues; d marks the D form. Bip = N[C@@H](Cc1ccc(-c2ccccc2)cc1)C(=O)O; Tpi = O=C(O)[C@@H]1Cc2c([nH]c3ccccc23)CN1; Dip = N[C@H](C(=O)O)C(c1ccccc1)c1ccccc1; 1Nal = N[C@@H](Cc1cccc2ccccc12)C(=O)O; 2Nal = N[C@@H](Cc1ccc2ccccc2c1)C(=O)O; TBMB = c1c(C[*:1])cc(C[*:3])cc1C[*:2]; Hyp = O=C(O)[C@@H]1C[C@@H](O)CN1; 3Pal = N[C@@H](Cc1cccnc1)C(=O)O; 4Pal = N[C@@H](Cc1ccncc1)C(=O)O; Tic = O=C(O)[C@@H]1Cc2ccccc2CN1; Cha = N[C@@H](CC1CCCCC1)C(=O)O; 4FluoPro = 4-fluoroproline; Pip = O=C(O)[C@@H]1CCCCN1

B1: Ac-(06-34-18) Pip3 (peptide)
peptide: Ac-CSW[Pip]ARCLHQDLC-NH2
modifications: linker 1-7-13 via TBMB
SMILES: CC(=O)N[C@H]1CSCc2cc3cc(c2)CSC[C@H](NC(=O)[C@H](CCCNC(=N)N)NC(=O)[C@H](C)NC(=O)[C@@H]2CCCCN2C(=O)[C@H](Cc2c[nH]c4ccccc24)NC(=O)[C@H](CO)NC1=O)C(=O)N[C@@H](CC(C)C)C(=O)N[C@@H](Cc1c[nH]cn1)C(=O)N[C@@H](CCC(N)=O)C(=O)N[C@@H](CC(=O)O)C(=O)N[C@@H](CC(C)C)C(=O)N[C@H](C(N)=O)CSC3
B2: Ac-(06-34-18) HyP3 (peptide)
peptide: Ac-CSW[Hyp]ARCLHQDLC-NH2
modifications: linker 1-7-13 via TBMB
SMILES: CC(=O)N[C@H]1CSCc2cc3cc(c2)CSC[C@H](NC(=O)[C@H](CCCNC(=N)N)NC(=O)[C@H](C)NC(=O)[C@@H]2C[C@@H](O)CN2C(=O)[C@H](Cc2c[nH]c4ccccc24)NC(=O)[C@H](CO)NC1=O)C(=O)N[C@@H](CC(C)C)C(=O)N[C@@H](Cc1c[nH]cn1)C(=O)N[C@@H](CCC(N)=O)C(=O)N[C@@H](CC(=O)O)C(=O)N[C@@H](CC(C)C)C(=O)N[C@H](C(N)=O)CSC3
B3: Ac-(06-34-18) Tic3 (peptide)
peptide: Ac-CSW[Tic]ARCLHQDLC-NH2
modifications: linker 1-7-13 via TBMB
SMILES: CC(=O)N[C@H]1CSCc2cc3cc(c2)CSC[C@H](NC(=O)[C@H](CCCNC(=N)N)NC(=O)[C@H](C)NC(=O)[C@@H]2Cc4ccccc4CN2C(=O)[C@H](Cc2c[nH]c4ccccc24)NC(=O)[C@H](CO)NC1=O)C(=O)N[C@@H](CC(C)C)C(=O)N[C@@H](Cc1c[nH]cn1)C(=O)N[C@@H](CCC(N)=O)C(=O)N[C@@H](CC(=O)O)C(=O)N[C@@H](CC(C)C)C(=O)N[C@H](C(N)=O)CSC3
B4: Ac-(06-34-18) 3Pal2 (peptide)
peptide: Ac-CS[3Pal]PARCLHQDLC-NH2
modifications: linker 1-7-13 via TBMB
SMILES: CC(=O)N[C@H]1CSCc2cc3cc(c2)CSC[C@H](NC(=O)[C@H](CCCNC(=N)N)NC(=O)[C@H](C)NC(=O)[C@@H]2CCCN2C(=O)[C@H](Cc2cccnc2)NC(=O)[C@H](CO)NC1=O)C(=O)N[C@@H](CC(C)C)C(=O)N[C@@H](Cc1c[nH]cn1)C(=O)N[C@@H](CCC(N)=O)C(=O)N[C@@H](CC(=O)O)C(=O)N[C@@H](CC(C)C)C(=O)N[C@H](C(N)=O)CSC3
B5: Ac-(06-34-18) 2NAL2 (peptide)
peptide: Ac-CS[2Nal]PARCLHQDLC-NH2
modifications: linker 1-7-13 via TBMB
SMILES: CC(=O)N[C@H]1CSCc2cc3cc(c2)CSC[C@H](NC(=O)[C@H](CCCNC(=N)N)NC(=O)[C@H](C)NC(=O)[C@@H]2CCCN2C(=O)[C@H](Cc2ccc4ccccc4c2)NC(=O)[C@H](CO)NC1=O)C(=O)N[C@@H](CC(C)C)C(=O)N[C@@H](Cc1c[nH]cn1)C(=O)N[C@@H](CCC(N)=O)C(=O)N[C@@H](CC(=O)O)C(=O)N[C@@H](CC(C)C)C(=O)N[C@H](C(N)=O)CSC3
B6: Ac-(06-34-18) 1NAL2 (peptide)
peptide: Ac-CS[1Nal]PARCLHQDLC-NH2
modifications: linker 1-7-13 via TBMB
SMILES: CC(=O)N[C@H]1CSCc2cc3cc(c2)CSC[C@H](NC(=O)[C@H](CCCNC(=N)N)NC(=O)[C@H](C)NC(=O)[C@@H]2CCCN2C(=O)[C@H](Cc2cccc4ccccc24)NC(=O)[C@H](CO)NC1=O)C(=O)N[C@@H](CC(C)C)C(=O)N[C@@H](Cc1c[nH]cn1)C(=O)N[C@@H](CCC(N)=O)C(=O)N[C@@H](CC(=O)O)C(=O)N[C@@H](CC(C)C)C(=O)N[C@H](C(N)=O)CSC3
B7: Ac-(06-34-18) NorHar2 (peptide)
peptide: Ac-CS[Tpi]PARCLHQDLC-NH2
modifications: linker 1-7-13 via TBMB
SMILES: CC(=O)N[C@H]1CSCc2cc3cc(c2)CSC[C@H](NC(=O)[C@H](CCCNC(=N)N)NC(=O)[C@H](C)NC(=O)[C@@H]2CCCN2C(=O)[C@@H]2Cc4c([nH]c5ccccc45)CN2C(=O)[C@H](CO)NC1=O)C(=O)N[C@@H](CC(C)C)C(=O)N[C@@H](Cc1c[nH]cn1)C(=O)N[C@@H](CCC(N)=O)C(=O)N[C@@H](CC(=O)O)C(=O)N[C@@H](CC(C)C)C(=O)N[C@H](C(N)=O)CSC3
B8: Ac-(06-34-18) 4,4,BPal2 (peptide)
peptide: Ac-CS[Bip]PARCLHQDLC-NH2
modifications: linker 1-7-13 via TBMB
SMILES: CC(=O)N[C@H]1CSCc2cc3cc(c2)CSC[C@H](NC(=O)[C@H](CCCNC(=N)N)NC(=O)[C@H](C)NC(=O)[C@@H]2CCCN2C(=O)[C@H](Cc2ccc(-c4ccccc4)cc2)NC(=O)[C@H](CO)NC1=O)C(=O)N[C@@H](CC(C)C)C(=O)N[C@@H](Cc1c[nH]cn1)C(=O)N[C@@H](CCC(N)=O)C(=O)N[C@@H](CC(=O)O)C(=O)N[C@@H](CC(C)C)C(=O)N[C@H](C(N)=O)CSC3
B9: Ac-(06-34-18) 4Pal2 (peptide)
peptide: Ac-CS[4Pal]PARCLHQDLC-NH2
modifications: linker 1-7-13 via TBMB
SMILES: CC(=O)N[C@H]1CSCc2cc3cc(c2)CSC[C@H](NC(=O)[C@H](CCCNC(=N)N)NC(=O)[C@H](C)NC(=O)[C@@H]2CCCN2C(=O)[C@H](Cc2ccncc2)NC(=O)[C@H](CO)NC1=O)C(=O)N[C@@H](CC(C)C)C(=O)N[C@@H](Cc1c[nH]cn1)C(=O)N[C@@H](CCC(N)=O)C(=O)N[C@@H](CC(=O)O)C(=O)N[C@@H](CC(C)C)C(=O)N[C@H](C(N)=O)CSC3
B10: Ac-(06-34-18) 3,3-DPA2 (peptide)
peptide: Ac-CS[Dip]PARCLHQDLC-NH2
modifications: linker 1-7-13 via TBMB
SMILES: CC(=O)N[C@H]1CSCc2cc3cc(c2)CSC[C@H](NC(=O)[C@H](CCCNC(=N)N)NC(=O)[C@H](C)NC(=O)[C@@H]2CCCN2C(=O)[C@H](C(c2ccccc2)c2ccccc2)NC(=O)[C@H](CO)NC1=O)C(=O)N[C@@H](CC(C)C)C(=O)N[C@@H](Cc1c[nH]cn1)C(=O)N[C@@H](CCC(N)=O)C(=O)N[C@@H](CC(=O)O)C(=O)N[C@@H](CC(C)C)C(=O)N[C@H](C(N)=O)CSC3
B11: Ac-(06-34-18) Cha2 (peptide)
peptide: Ac-CS[Cha]PARCLHQDLC-NH2
modifications: linker 1-7-13 via TBMB
SMILES: CC(=O)N[C@H]1CSCc2cc3cc(c2)CSC[C@H](NC(=O)[C@H](CCCNC(=N)N)NC(=O)[C@H](C)NC(=O)[C@@H]2CCCN2C(=O)[C@H](CC2CCCCC2)NC(=O)[C@H](CO)NC1=O)C(=O)N[C@@H](CC(C)C)C(=O)N[C@@H](Cc1c[nH]cn1)C(=O)N[C@@H](CCC(N)=O)C(=O)N[C@@H](CC(=O)O)C(=O)N[C@@H](CC(C)C)C(=O)N[C@H](C(N)=O)CSC3

These binders were tested against T1, human plasma Kallikrein (human, UniProt P03952 20-638, limits assumed) (assay: enzyme inhibition assay).
T1 construct: also called hPK; human PK
T1 sequence (P03952 20-638 limits assumed): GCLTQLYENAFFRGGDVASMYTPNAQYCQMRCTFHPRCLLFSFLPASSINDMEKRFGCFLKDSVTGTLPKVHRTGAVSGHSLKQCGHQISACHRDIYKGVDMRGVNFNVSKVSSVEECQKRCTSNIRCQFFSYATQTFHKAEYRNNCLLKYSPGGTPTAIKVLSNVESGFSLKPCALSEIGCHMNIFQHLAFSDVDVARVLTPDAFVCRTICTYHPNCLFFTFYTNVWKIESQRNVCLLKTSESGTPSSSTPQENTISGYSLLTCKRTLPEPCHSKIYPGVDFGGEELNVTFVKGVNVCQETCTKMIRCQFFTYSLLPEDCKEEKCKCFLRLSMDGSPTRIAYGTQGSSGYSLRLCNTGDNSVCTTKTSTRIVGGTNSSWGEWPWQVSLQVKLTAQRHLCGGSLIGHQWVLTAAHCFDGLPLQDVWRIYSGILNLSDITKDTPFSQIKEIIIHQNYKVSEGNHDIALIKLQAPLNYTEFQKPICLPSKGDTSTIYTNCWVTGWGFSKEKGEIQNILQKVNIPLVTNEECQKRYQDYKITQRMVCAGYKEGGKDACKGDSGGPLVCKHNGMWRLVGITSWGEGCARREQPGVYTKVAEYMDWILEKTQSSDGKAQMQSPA
For B1, the Ki was 0.26 nM.
B2 showed a Ki of 0.41 nM.
Ac-CSW[4FluoPro]ARCLHQDLC-NH2 (linker 1-7-13 via TBMB) [Ac-(06-34-18) 4FluoPro3] gave a Ki of 0.24 nM.
For B3, the Ki was 13.5 nM.

Target: T1, human plasma Kallikrein
Assay: enzyme inhibition assay
Remark: another data set of the same source
For Ac-CSFP[Bip]RCLHQDLC-NH2 (linker 1-7-13 via TBMB) [Ac-(06-34-18) Phe2 4,4-BPal4], the Ki was 10.5 nM.
Ac-CSFP[2Nal]RCLHQDLC-NH2 (linker 1-7-13 via TBMB) [Ac-(06-34-18) Phe2 2Nal4] showed a Ki of 7.27 nM.

Target: T1, human plasma Kallikrein
Assay: enzyme inhibition assay
Remark: another data set of the same source
B4 was tested, and the Ki was 59 nM.
B5 showed a Ki of 0.5 nM.
B6 gave a Ki of 10.7 nM.
With B7 the Ki was 24 nM.
B8 was tested, and the Ki was 464 nM.
For B9, the Ki was 72 nM.
B10 gave a Ki of 1.5 nM.
Work on B11 yielded a Ki of 4.7 nM.
